Laboratory results as given in patent US8624002B2, “Prostaglandin E2 binding proteins and uses thereof” (AbbVie, Inc., priority 2008, dated 2014).

Columns and labels:
[1] = system: carrageenan-induced paw edema; assay: Carrageenan-induced footpad edema model; format: in vivo, C57.BL/6 mice; conditions: 3 mg/kg, p.o.
Description: Carrageenan-Induced Footpad Edema is an acute rodent model of innate immune function. The in vivo efficacy of mouse anti-PGE2 antibody 2B5-8.0 is assessed in a carragenan-induced paw edema model. The induction of paw inflammation with carrageenan is performed similarly as previously described (Joseph P. Portanova, et al. J. Exp. Med. 184: 883-891 (1996)). Intradermal (ID) injection of an inflammatory agent causes a rapid influx of neutrophils and fluid edema which peaks at approximately 4 hours, followed by an influx of macrophages and monocytes which peaks at approximately 48 hours. C57.BL/6 mice (8-10-week-old, Jackson Laboratories, Bar Harbor, Me.) were injected ID in the rear footpad with 30 μL of either PBS (left) or λ-carrageenen (Sigma Aldrich, St. Louis, Mo.) in PBS (right) at a concentration of 5.0 mg/mL (150 μg/mouse). Rear footpad thickness was measured by Dyer spring caliper model #310-119 at baseline (time=0), and 4 hours post carrageenan challenge. Significant difference for paw thickness was determined by comparing mean paw swelling for each treatment group to vehicle in a Student's two-tailed t-test. Mice were given a dose titration of an anti-PGE2 antibody (2B5-8.0) intraperitonially (IP) 18 hours prior to carrageenan challenge, or Indomethacin, PO 2 hours prior to challenge. The endpoint measured was the difference in paw swelling (edema) between right and left paws 4 hours after treatment.

[2] = Biotin-PGE2 ELISA (PGE2-biotinamide binding to captured IgG)
[3] = system: PGE2 induced Ca++ influx in HEK293 Gα16 cells stably transfected with human EP4 receptor; assay: EP4 bioassay: PGE2 induced Ca++ flux (FLIPR); format: cell-based; conditions: PGE2 25 pm; read-out: IC50 (pM) @ PGE2 25 pm Cellular Potency in EP4 assay
Description: The ability of anti-PGE2 antibody to inhibit cellular response of PGE2 in vitro was determined in a Ca^++ flux assay in HEK293 Gα16 cells (Abbott Bioresearch Center, Worcester, Mass.) stably transfected with human EP4 receptor. In brief, an expression plasmid encoding one of the four human PGE2 receptors, EP4, and an expression plasmid encoding Gα16, were co-transfected into human embryonic kidney cell line 293 cells (ATCC# CRL1573, Manassas, Va.). The stable clones co-expressing both human EP4 and Gα16 protein were selected using standard methods (Joseph Sambrook and David W. Russell. Molecular Cloning: A Laboratory Manual Publisher. Published by Cold Spring Harbor Laboratory Press, 2001) and used for the EP4 bioassay. The HEK293 Gα16 cells were plated in black/clear poly-D-lysine plates (Corning #3667, Corning, N.Y.) and incubated with a Ca^++-sensitive dye (Molecular Devices, Sunnyvale, Calif.) for 90 minutes. Stock PGE2 (in 200 proof ethanol) was diluted with FLIPR buffer [containing 1×HBSS (Invitrogen Carlsbad, Calif.), 20 mM HEPES (Invitrogen Carlsbad, Calif.), 0.1% BSA (Sigma, St. Louis, Mo.) and 2.5 mM Probenecid (Sigma, St. Louis, Mo.)]. Anti-PGE2 antibodies or isotype matched control antibodies were also pre-diluted in FLIPR buffer. 25 μl of PGE2 or pre-incubated PGE2/antibody mixture was added to the wells pre-plated with cells. The dose response of PGE2 was determined on a serial titration of PGE2 and using FLIPR1 or Tetra (Molecular Devices, Sunnyvale, Calif.) and EC50 was determined using GraphPad Prism 5 (GraphPad Software, La Jolla, Calif.). […] Ca^++ flux was monitored using FLIPR1 and data was analyzed using GraphPad Prism 5 (GraphPad Software, La Jolla, Calif.).

[4] = Pharmacokinetics of hu2B5.7 and hu2B5.4 in Sprague-Dawley rats; format: in vivo; conditions: male Sprague-Dawley rats, IV 4 mg/kg
Description: Pharmacokinetic parameters were calculated by non-compartmental analysis using WinNonlin.
MSD streptavidin plates (Meso Scale Discovery) were washed with phosphate buffered saline containing 0.05% Tween-20 (diluted from 10×PBS, Abbott Bioresearch Center, Media Room, Worcester, Mass. and Tween-20, Sigma, St. Louis, Mo.). Plates were blocked with 250 μL/well blocking solution (MSD Block, Meso Scale Discovery, diluted to 3% final concentration in PBS) for 1 hour, covered, with shaking (600 rpm) at room temperature. After washing, 70 μL of biotinylated PGE2 (Prostoglandin E2-biotinamide, Cayman Chemical, Ann Arbor, Mich., cat# 10006987, lot# 190831-191028; 0.01 ug/mL in assay buffer) was added to each well. The plates were covered and incubated with shaking (600 rpm) for 1 hour at room temperature.
Prior to analysis, rat serum samples were thawed on ice, mixed gently, and centrifuged at 14,000 rpm for 3 minutes at 4° C. in an eppendorf centrifuge. Standard curve and control samples were prepared in rat serum. Tecan Evo automated liquid handling station was used to dilute standard curve, high, medium, and low controls, and serum samples in assay buffer, keeping 1% final serum concentration constant. MSD plates were washed again and study samples, standard curve samples and blanks, as well as high, medium, and low controls were added (70 μL/well). The plates were covered, and incubated for 1 hour with shaking (600 rpm) at room temperature.
After incubation, the MSD plates were washed, and 70 μL sulfo-tagged goat anti-human IgG (Meso Scale Discovery; diluted to 1 ug/mL in assay buffer) was added to each well. The MSD plates were covered, and incubated with shaking (600 rpm) for 1 hour at room temperature, then the plates were washed and developed with 2× Read Buffer (Meso Scale Discovery). Chemilumeniscence was measured within ten minutes on the MSD Sector Imager 6000.
Standard curves were analyzed using four-parameter logistic fit and sample concentrations were calculated by XLfit4 software version 2.2.1 Build 16, ([…].). Pharmacokinetic parameters were calculated for each animal using Winonlin software version 5.0.1 (Pharsight Corporation, Mountain View, Calif.) by noncompartmental analysis.
Surgically altered jugular vein cannulated, JVC) male Sprague-Dawley Rats (approximately seven weeks old, weighing 240-390 grams) were purchased from Charles River Laboratories (Wilmington, Mass.). The animals were housed in rooms maintained at constant temperature and humidity under a 12 hour light/dark cycle, fed with normal rodent chow and were allowed food and water ad libitum. Hydration and clinical conditions of the animals were monitored daily.
0.2 mL blood samples were collected from the rats at various timepoints, allowed to clot for 30 minutes at room temperature, centrifuged for 3 minutes at 13,200 rpm, the serum transferred to eppendorf tubes and stored frozen at −80° C.

[5] = Capillary zone electrophoresis; format: physicochemical; conditions: running buffer pH 5.5; compared with Hu2B5.2, Hu2B5.4, Hu2B5.6, Hu2B5.8
Excerpt: Capillary zone electrophoresis is a capillary electrophoresis method in which the capillary is filled with buffer and the separation mechanism is based on differences in electrophoretic mobility of the analyte through the buffer. The electrophoretic mobility of a molecule is related to the charge-to-size ratio. A Beckman-Coulter ProteomeLab PA 800 (Beckman Coulter, Fullerton, Calif.) was used for the CZE analysis. A neutral capillary (eCAP neutral, 56 cm total length, 50 μm I. D. Beckman-Coulter, P/N 477441, Fullerton, Calif.) was used. The method used a 30.2 cm capillary with a detection window 20.2 cm from the sample introduction inlet. The running buffer was 100 mM EACA (6-Aminocaproic acid, Sigma A7824-100 G, St. Louis, Mo.) with 0.1% MC (from 1% Methylcellulose solution, Convergent Bioscience, cat# 101876, Toronto, ON, Canada), pH 5.5.

[6] = ^3H-PGE2 competition ELISA (prostaglandin selectivity); format: binding
Description: Alternatively, prostaglandin selectivity was determined using a ^3H-PGE2 competition ELISA. Plates were coated with 50 μL/well of 5 μg/ml of goat anti-human IgG (Fc) (Thermo Scientific # 31170, Hudson, N.H.) or goat anti-mouse IgG (Fc) (Thermo Scientific # 31125, Hudson, N.H.) in PBS and incubated overnight at 4° C. The following day plates were flicked and blotted dry. Plates were blocked with 200 μL/well of Superblock (Thermo Scientific # 37515, Hudson, N.H.), 1 hour at room temperature. Plates were flicked and blotted dry. Monoclonal antibodies were diluted to 0.04 μg/ml in PBST (Abbott Bioresearch Center, Worcester, Mass.)/10% Superblock and 50 μL of each was added to each well (2 ng/well) of the pre-blocked ELISA plate and incubated for 1 hour at room temperature. Wells were washed 3 times with PBS/0.1% Tween-20. ^3H-PGE2 (Perkin Elmer # NET-428, Waltham, Mass.) was diluted in PBST/10% Superblock to 6 nM (2× stock). Each prostaglandin (Cayman Chemicals, Ann Arbor, Mich.) was prepared in PBST+10% Superblock at various concentrations ranging from 2000 μM (2× stock) to 0.00004 μM (2×). Equal volumes of the ^3H-PGE2 solution and of each prostaglandin dilution were mixed. Fifty microliters of this mixture was then added to each well of the plate and incubated for 1 hour at room temperature. Wells were washed manually 6 times with PBST/10% Superblock and 50 μL of scintillation fluid (Perkin Elmer # 6013621, Waltham, Mass.) added to each well. Plates were read using a TopCount reader (Perkin Elmer, Waltham, Mass.) with a 5 minute count delay. IC50 number was determined using GraphPad Prism 5 (GraphPad Software, La Jolla, Calif.). The cross reactivity index was then calculated by IC50 of PGE2/IC50 of other prostaglandin(s)

COc1ccc2c(c1)c(CC(=O)O)c(C)n2C(=O)c1ccc(Cl)cc1 [Indomethacin, reference compound]
Δ Paw Swelling (mm) ([1]; 2 hours prior to challenge, 4 hours post challenge): 0.486 ± 0.03 mm | % Inhibition ([1]; paw swelling 4 hours post challenge): 57 ± 3.5%

B1: Hu2B5.7: humanized 2B5-8.0; VH SEQ ID NO 72, VL SEQ ID NO 73 (antibody, V domains shown)
VH: EVQLVQSGAEVKKPGASVKVSCKASGYTFTKYWLGWVRQAPGQGLEWMGDIYPGYDYTHYNEKFKDRVTLTTDTSTSTAYMELRSLRSDDTAVYYCARSDGSSTYWGQGTLVTVSS
VL: DVLMTQTPLSLPVTPGEPASISCTSSQNIVHSNGNTYLEWYLQKPGQSPQLLIYKVSNRFSGVPDRFSGSGSGTDFTLKISRVEAEDVGVYYCFQVSHVPYTFGGGTKVEIKR
EC50 [2]: 79 pM | IC50 [3]: 78 pM | AUC0-∞ [4]: 9900 ± 1800 µg·h/mL | CL [4]: 9.84 ± 1.7 mL/day/kg | MRT [4]: 16.8 ± 1.0 days | T½ [4]: 12.4 days | Vss [4]: 0.165 ± 0.0198 L/kg | Vz [4]: 0.176 ± 0.0308 L/kg | migration in capillary zone electrophoresis [5]: migrated more basic | prostaglandin binding specificity in ^3H-PGE2 competition ELISA [6]: demonstrated specificity to PGE2
